No end group written: not given here. Some results are limits rather than exact numbers.

This test deals with T1, HLA-A*02:01 (peptide-receptive MHC class I molecule after UV-ligand exchange) (human).
T1 construct: monomers captured on streptavidin-coated plates; also called peptide-receptive MHC molecules; MHC monomers
The test can be described thus: UV-ligand exchange, anti-b2m ELISA; peptide exchange yield grade (>10% = +; >20% = ++; >50 = +++; >75% = ++++). The text has this:
Candidate peptides for T cell based therapies according to the present invention were further tested for their MHC binding capacity (affinity). The individual peptide-MHC complexes were produced by UV-ligand exchange, where a UV-sensitive peptide is cleaved upon UV-irradiation, and exchanged with the peptide of interest as analyzed. Only peptide candidates that can effectively bind and stabilize the peptide-receptive MHC molecules prevent dissociation of the MHC complexes. To determine the yield of the exchange reaction, an ELISA was performed based on the detection of the light chain (β2m) of stabilized MHC complexes. The assay was performed as generally described in Rodenko et al. (Rodenko et al., 2006).
96 well MAXISorp plates (NUNC) were coated over night with 2 ug/ml streptavidin in PBS at room temperature, washed 4× and blocked for1 h at 37° C. in 2% BSA containing blocking buffer. Refolded HLA-A*02:01/MLA-001 monomers served as standards, covering the range of 15-500 ng/ml. Peptide-MHC monomers of the UV-exchange reaction were diluted 100-fold in blocking buffer. Samples were incubated for 1 h at 37° C., washed four times, incubated with 2 ug/ml HRP conjugated anti-β2 m for 1 h at 37° C., washed again and detected with TMB solution that is stopped with […]. Absorption was measured at 450 nm. Candidate peptides that show a high exchange yield (preferably higher than 50%, most preferred higher than 75%) are generally preferred for a generation and production of antibodies or fragments thereof, and/or T cell receptors or fragments thereof, as they show sufficient avidity to the MHC molecules and prevent dissociation of the MHC complexes.
(In general: In an ELISA, binding on a coated surface is turned into a signal by an enzyme label.)
The molecule LLLSDPDKVTI [peptide LLLSDPDKVTI (SEQ ID NO: 7)] returned a peptide exchange yield of more than 75%.

NLSETASTMAL [peptide NLSETASTMAL (SEQ ID NO: 25)] registered a peptide exchange yield of more than 75%.

SAFPFPVTVSL [peptide SAFPFPVTVSL (SEQ ID NO: 10)] registered a peptide exchange yield of 20 to 50%.

Take AAYPEIVAV [peptide AAYPEIVAV (SEQ ID NO: 2)]: the peptide exchange yield lay in the range of 50 to 75%.

EMDSTVITV [peptide EMDSTVITV (SEQ ID NO: 3)] displayed a peptide exchange yield of 50 to 75%.

As for YASGSSASL [peptide YASGSSASL (SEQ ID NO: 28)], the peptide exchange yield was 10 to 20%.

Take YAAEIASAL (also: trifluoroacetate salt) [peptide YAAEIASAL (SEQ ID NO: 1)]: the peptide exchange yield was in the range of 50 to 75%.

As for GLIDEVMVLL [peptide GLIDEVMVLL (SEQ ID NO: 5)], the peptide exchange yield is more than 75%.

Take TAQTLVRIL [peptide TAQTLVRIL (SEQ ID NO: 26)]: the peptide exchange yield was 10 to 20%.

For the molecule LLLPLLPPLSPS (also: trifluoroacetate salt) [peptide LLLPLLPPLSPS (SEQ ID NO: 6)], the peptide exchange yield is more than 75%.

Molecule AVMTDLPVI [peptide AVMTDLPVI (SEQ ID NO: 16)] had a peptide exchange yield of more than 75%.

For SLLSELLGV [peptide SLLSELLGV (SEQ ID NO: 23)], the peptide exchange yield is more than 75%.

As for SVIDSLPEI [peptide SVIDSLPEI (SEQ ID NO: 15)], the peptide exchange yield was more than 75%.

Consider RLAKLTAAV [peptide RLAKLTAAV (SEQ ID NO: 9)], for which the peptide exchange yield is more than 75%.

As to ALAEQVQKA [peptide ALAEQVQKA (SEQ ID NO: 27)], the peptide exchange yield lay within 50 to 75%.

As for TILPGNLQSW [peptide TILPGNLQSW (SEQ ID NO: 12)], the peptide exchange yield was in the range of 10 to 20%.

On to TAYPQVVVV [peptide TAYPQVVVV (SEQ ID NO: 19)], for which the peptide exchange yield was 20 to 50%.

LSASLVRIL [peptide LSASLVRIL (SEQ ID NO: 8)]: the peptide exchange yield is 10 to 20%.

In the case of ISAPLVKTL [peptide ISAPLVKTL (SEQ ID NO: 24)], the peptide exchange yield lay within 10 to 20%.

Molecule SAFGFPVIL [peptide SAFGFPVIL (SEQ ID NO: 22)] showed a peptide exchange yield of 20 to 50%.

Regarding SIIDFTVTM [peptide SIIDFTVTM (SEQ ID NO: 11)], the peptide exchange yield is more than 75%.

In turn, FASGLIHRV [peptide FASGLIHRV (SEQ ID NO: 30)] showed a peptide exchange yield of 50 to 75%.

On to VLQDELPQL [peptide VLQDELPQL (SEQ ID NO: 20)], for which the peptide exchange yield is more than 75%.

YGIEFVVGV [peptide YGIEFVVGV (SEQ ID NO: 14)] came in with a peptide exchange yield of more than 75%.

On to VLYDNTQLQL [peptide VLYDNTQLQL (SEQ ID NO: 17)], for which the peptide exchange yield was more than 75%.

FLLEAQNYL [peptide FLLEAQNYL (SEQ ID NO: 4)] gave a peptide exchange yield of more than 75%.

Turning to SLSPDLSQV [peptide SLSPDLSQV (SEQ ID NO: 18)], the peptide exchange yield fell in the range of 50 to 75%.

In turn, IAIPFLIKL [peptide IAIPFLIKL (SEQ ID NO: 31)] registered a peptide exchange yield of more than 75%.

Consider VLPRAFTYV [peptide VLPRAFTYV (SEQ ID NO: 13)], for which the peptide exchange yield was more than 75%.

Regarding IAFPTSISV [peptide IAFPTSISV (SEQ ID NO: 21)], the peptide exchange yield was in the range of 50 to 75%.

FASEVSNVL [peptide FASEVSNVL (SEQ ID NO: 29)] came in with a peptide exchange yield of more than 75%.

YVISQVFEI [peptide YVISQVFEI (SEQ ID NO: 32)] returned a peptide exchange yield of more than 75%.
